Data: patent publication US11666658B2, “Rifamycin analogs and antibody-drug conjugates thereof” (Regeneron Pharmaceuticals, Inc., priority 2018, dated 2023)

What was measured:
His9-hMSR1 = biological target: T1, His9-hMSR1 (Homo sapiens, UniProt P21757); assay: Cross-competition between anti-MSR1 antibodies (OCTET bio-layer interferometry); assay type: binding; conditions: label = first mAb (mAb-1) on His9-hMSR1 captured with anti-Penta-His Octet biosensors; value = competing mAb-2
T1 construct: human MSR1 extracellular domain expressed with a N-terminal nonahistidine tag; purchased R&D Systems 2708-MS
T1 sequence (P21757 77-451 limits assumed): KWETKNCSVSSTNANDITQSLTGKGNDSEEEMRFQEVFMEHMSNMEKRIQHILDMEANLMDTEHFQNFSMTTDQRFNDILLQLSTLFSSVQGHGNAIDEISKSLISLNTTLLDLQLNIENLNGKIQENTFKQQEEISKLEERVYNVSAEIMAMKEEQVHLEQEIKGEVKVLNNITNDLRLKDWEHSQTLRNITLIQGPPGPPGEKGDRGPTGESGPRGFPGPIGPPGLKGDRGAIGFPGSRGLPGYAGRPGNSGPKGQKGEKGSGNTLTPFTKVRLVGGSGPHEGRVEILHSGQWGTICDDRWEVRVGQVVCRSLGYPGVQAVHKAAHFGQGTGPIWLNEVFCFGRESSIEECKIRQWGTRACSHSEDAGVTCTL
Method: Binding competition between different anti-MSR1 antibodies was assessed using a real time, label-free bio-layer interferometry assay on an OCTET® HTX biosensor platform (Pall FortéBio Corp., Menlo Park, Calif.). The experiment was performed at 25° C. in 10 mM HEPES, 150 mM NaCl, 3 mM EDTA, 0.05% v/v Surfactant Tween-20, and 1 mg/mL BSA, pH 7.4 (HBS-EBT) buffer with the plate shaking at the speed of 1000 rpm.
To assess whether different antibodies are able to compete with one another for binding to their respective epitopes on the recombinant human MSR1 extracellular domain expressed with a N-terminal nonahistidine tag (SEQ ID NO: 688) (His9-hMSR1; R&D Systems, Cat #2708-MS), around […] of His9-hMSR1 was first captured onto anti-Penta-His antibody coated OCTET® biosensor tips (“Penta-His” disclosed as SEQ ID NO: 690) (Pall FortéBio Corp., #18-5122) by submerging the biosensor tips for 45 seconds into wells containing a […] solution of His9-hMSR1. The antigen-captured biosensor tips were then saturated with a first anti-MSR1 monoclonal antibody (subsequently referred to as “mAb-1”) by immersion into wells containing a […] solution of mAb-1 for 4 minutes. The biosensor tips were then submerged into wells containing a […] solution of a second anti-MSR1 monoclonal antibody (subsequently referred to as “mAb-2”) for 4 minutes. All of the biosensor tips were washed in HBS-EBT buffer in between each step of the experiment. The real-time binding response was monitored during the course of the experiment and the binding response at the end of each step was recorded. […] Table 17 explicitly defines the relationships of antibodies competing in both directions, independent of the order of binding.

[1] = biological target: T2, biot-AGE-BSA binding to His9-hMSR1 (Homo sapiens, UniProt P21757); assay: Competition sandwich ELISA, biot-AGE-BSA; conditions: anti-MSR1 antibody 300 nM, 400 pM biot-AGE-BSA
T2 construct: human MSR1 extracellular domain expressed with a N-terminal nonahistidine tag; purchased R&D Systems 2708-MS
T2 sequence (P21757 77-451 limits assumed): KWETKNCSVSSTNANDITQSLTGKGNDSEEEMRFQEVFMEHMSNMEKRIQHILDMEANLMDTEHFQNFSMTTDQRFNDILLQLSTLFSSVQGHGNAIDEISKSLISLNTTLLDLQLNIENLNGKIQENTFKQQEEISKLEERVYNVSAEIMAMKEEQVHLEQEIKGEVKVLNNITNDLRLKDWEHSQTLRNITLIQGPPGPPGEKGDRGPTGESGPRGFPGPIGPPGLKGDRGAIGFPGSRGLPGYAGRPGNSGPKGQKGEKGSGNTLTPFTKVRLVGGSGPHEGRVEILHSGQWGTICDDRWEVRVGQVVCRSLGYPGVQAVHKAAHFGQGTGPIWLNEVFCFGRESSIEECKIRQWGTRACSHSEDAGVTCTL
Method: (§1) The ability of anti-MSR1 antibodies disclosed herein to block the binding of various ligands to human MSR1 was measured using three competition sandwich ELISA assays. The ligands used in the assays were: (1) acetylated LDL (Ac-LDL), (2) oxidized LDL (Ox-LDL), and (3) advanced glycation end-products of bovine serum albumin (AGE-BSA).
For the assay, recombinant monomeric human MSR1 protein comprised of a portion of the human MSR1 extracellular domain expressed with a N-terminal 9-Histidine tag (SEQ ID NO: 688) (His9-hMSR1; R&D Systems, Cat #2708-MS) was coated at a concentration of […] in PBS on a 96-well microtiter plate overnight at 4° C. for use in competition ELISA assays with Ac-LDL, Ox-LDL, or biotinylated-AGE-BSA (“biot-AGE-BSA”). […] Anti-MSR1 antibodies or isotype control antibodies were serially diluted as appropriate for each tested ligand and added in duplicate for each serial dilution set to microtiter plates coated with His9-hMSR1. Buffer alone was also added to wells on each coat. After 1 hour incubation at room temperature, without wash, a final constant concentration of 50 pM Ac-LDL (Life Technologies/ThermoFisher Scientific, Cat #L-35354), 5 nM or 10 nM Ox-LDL (Alfa Aesar, Cat #J65591), or 400 pM biot-AGE-BSA (R&D Systems, Cat #BT4127) were added to plates with His9-hMSR1, and the plates were incubated for an additional 1 hour at room temperature. (Concentrations of Ac-LDL, Ox-LDL and biot-AGE-BSA for antibody inhibition assays were selected from the approximate midway point within the linear portion of individual binding curves of Ac-LDL, Ox-LDL or biot-AGE-BSA to plate-coated His9-hMSR1.) Wells were washed, and plate-bound Ac-LDL or Ox-LDL were detected with anti-LDL rabbit antibody (Alfa Aesar, Cat #J64398) in combination with anti-rabbit IgG (H+L) specific donkey polyclonal antibodies conjugated with horseradish peroxidase (HRP) (JacksonImmunoResearch, Cat #711-035-152) and biot-AGE-BSA was detected with a streptavidin-HRP (ThermoFisher Scientific, Cat #N200). Plates were developed using TMB substrate solution (BD Biosciences, Cat #51-2606KC & Cat #51-2607KC) according to manufacturer's recommendation and absorbance at 450 nm was measured on a Victor™ Multilabel Plate Reader (PerkinElmer™). This assay was conducted in four different assay runs.
(§2) Data analysis was performed using a sigmoidal dose-response model within Prism™ software (GraphPad). Percent blockade at maximum concentration of the antibody tested in each assay was calculated as an indicator of the ability of the antibodies to block the binding of Ac-LDL, Ox-LDL or biot-AGE-BSA to His9-hMSR1 on the plate relative to the baseline of the assay. In the calculation, binding signal of the same concentrations of Ac-LDL, Ox-LDL, or biot-AGE-BSA used for the assays in the absence of antibody was referenced as 100% binding or 0% blocking, while the baseline of the assay, defined as binding signal of the sample of buffer without MSR1 ligands or antibody, was referenced as 0% binding or 100% blocking. The maximum percent blockade at the highest concentration of antibody tested in each assay are reported for all antibodies. Negative percent blockade numbers reflected higher MSR1 ligands binding to plate coated His9-hMSR1 in the presence of antibodies.

[2] = biological target: T3, Ox-LDL binding to His9-hMSR1 (Homo sapiens, UniProt P21757); assay: Competition sandwich ELISA, Ox-LDL; conditions: anti-MSR1 antibody 500 nM, Ox-LDL 10 nM
T3 construct: human MSR1 extracellular domain expressed with a N-terminal nonahistidine tag; purchased R&D Systems 2708-MS
T3 sequence (P21757 77-451 limits assumed): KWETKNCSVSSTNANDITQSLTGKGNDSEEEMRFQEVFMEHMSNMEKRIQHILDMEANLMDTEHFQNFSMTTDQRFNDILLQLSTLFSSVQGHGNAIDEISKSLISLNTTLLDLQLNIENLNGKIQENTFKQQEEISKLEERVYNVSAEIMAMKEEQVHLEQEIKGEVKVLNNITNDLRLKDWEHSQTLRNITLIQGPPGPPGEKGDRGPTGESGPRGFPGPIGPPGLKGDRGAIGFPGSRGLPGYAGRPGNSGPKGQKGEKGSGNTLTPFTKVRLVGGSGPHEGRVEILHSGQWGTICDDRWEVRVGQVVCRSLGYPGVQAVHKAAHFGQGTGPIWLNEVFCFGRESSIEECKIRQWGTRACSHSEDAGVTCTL
Method: as §1
(§3) Anti-MSR1 antibodies or isotype control antibodies were serially diluted as appropriate for each tested ligand and added in duplicate for each serial dilution set to microtiter plates coated with His9-hMSR1. Buffer alone was also added to wells on each coat. […] This assay was conducted in four different assay runs.
as §2, with “antibodies.” for “antibodies. Negative percent blockade numbers reflected higher MSR1 ligands binding to plate coated His9-hMSR1 in the presence of antibodies.”

[3] = biological target: T4, Ac-LDL binding to His9-hMSR1 (Homo sapiens, UniProt P21757); assay: Competition sandwich ELISA, Ac-LDL; conditions: anti-MSR1 antibody 100 nM, 50 pM Ac-LDL
T4 construct: human MSR1 extracellular domain expressed with a N-terminal nonahistidine tag; purchased R&D Systems 2708-MS
T4 sequence (P21757 77-451 limits assumed): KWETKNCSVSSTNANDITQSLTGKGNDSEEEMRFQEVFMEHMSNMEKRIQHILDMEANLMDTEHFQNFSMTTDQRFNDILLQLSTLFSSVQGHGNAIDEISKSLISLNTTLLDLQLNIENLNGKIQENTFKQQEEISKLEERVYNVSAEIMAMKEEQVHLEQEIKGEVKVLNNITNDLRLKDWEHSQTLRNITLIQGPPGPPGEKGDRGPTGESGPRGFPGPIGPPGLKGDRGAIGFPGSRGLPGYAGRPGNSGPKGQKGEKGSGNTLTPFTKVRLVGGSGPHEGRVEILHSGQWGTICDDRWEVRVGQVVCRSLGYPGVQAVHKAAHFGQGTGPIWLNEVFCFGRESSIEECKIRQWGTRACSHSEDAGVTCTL
Method: as §1, §3
as §2, with “antibodies.” for “antibodies. Negative percent blockade numbers reflected higher MSR1 ligands binding to plate coated His9-hMSR1 in the presence of antibodies.”

mAb-2 antibodies which Compete with mAb-1 (His9-hMSR1): Data Inconclusive**
% Blocking of biot-AGE-BSA binding to His9-hMSR1 [1]: 96%
% Blocking of Ox-LDL binding to His9-hMSR1 [2]: 97%
% Blocking of Ac-LDL binding to His9-hMSR1 [3]: 105%
B1: H1H21227N-N297Q: "modified versions of 21227N (H1H21227N-N297Q and H1H21227N-N297D)"; anti-MSR1 antibody "with a N297Q single point mutation" (antibody, V domains shown)
VH: QVQLVQSGAEVKKPGASVKVSCKVSGYTLTELSIHWVRQVPGKGLEWMGGFDPEEGETIFAQEFRDRVTLTEDTSPDTAYMELSSLKSEDAAVYYCTTPRYCNNGICYDYWGQGTLVTVSS
VL: DIQMTQSPSSLSASVGDRVTITCRASQSISNYLNWYQQKPGKAPKLLIYTASSLQSGVPSRFSGSGSGTDFTLTISSLQTEDFATYYCQQSYSNFPITFGQGTRLEIKR
